# Reference: the DeepSol protein solubility set
# Assay: soluble on expression in E. coli; label from the status in PepcDB or PDB records
row,Sequence,soluble on expression in E. coli
1,MAAAPPSADPLDKALIVDVDQWIEQLYECKPLSENQVKTLCEKAKEILEKEPNVQEVRCPVTVCGDVHGQFHDLMELFKMGGKSPDTNYLFMGDYVDRGYYSVETVSLLVCLKIRYKDRVTLLRGNHESRQITQVYGFYDECLRKYGNSNVWKYFTDLFDCFPLTALVDGQIFCLHGGLSPSIDTLDHIRALDRIQEVPHEGPMCDLLWSDPDDRGGWGISPRGAGYTFGQDISETFNHSNGLTLISRAHQLVMEGYNWSHDRNVVTVFSAPNYCYRCGNQAAMVELDDDLKYSFLQFDPAPRRGEPHVTRRTPDYFL,not soluble
2,MSLEKQKGLAIITGASQGIGAVIAAGLATDGYRVVLIARSKQNLEKVHDEIMRSNKHVQEPIVLPLDITDCTKADTEIKDIHQKYGAVDILVNAAAMFMDGSLSEPVDNFRKIMEINVIAQYGILKTVTEIMKVQKNGYIFNVASRAAKYGFADGGIYGSTKFALLGLAESLYRELAPLGIRVTTLCPGWVNTDMAKKAGTPFKDEEMIQPDDLLNTIRCLLNLSENVCIKDIVFEMKKSIIEGHHHHHH,soluble
3,MGADLRYNMEITLEEAFAGKTAQIRVPTSITCDVCSGSGAKPGTQPKTCATCQGSGRVRAAQGFFSVERTCPTCHGRGQTISDPCGKCHGQGRVTEERSLSVNIPSGIEDGTRIRLQGEGEAGMRGGPAGDLYIFLSVRPHEFFQRDGADLYCTVPISMTTAALGGTFDVTTLDGTKSRVTVPEGTQPGKQFRLKGKGMPVLRSAQTGDLYIQIQIETPQKLSKRQRELLQEFEQLSSKENNPLEHHHHHH,soluble
4,GTPLSSDEKIRVLVWNIFKQQRAEWQSVLKNFGKDAHLVLLQEAQTTPELVRFATSNYLAADQVPALVLPQHPSGVMTLASAHPIYCCPLREREPILRLPKSALVTVYPLPDARLLMVVNIHAVNFSLGVDVYSKQLLPIGDQIAHHSGPVIMAGDFNAWSRPRMNALYRFAREMSLREVRFSDDQRRRAFGRPLDFVFYRGLSVHDASVLVTRASDHNPLLVEFSPGKP,not soluble
5,MEMILEEKDASDWIYRGEGGANLVLAYAGSSPLFVGKVIRIQKARRNDKAIKNANGVVSVLTSDEQHLWRENNELISSPNKEVLEQRYVKNVIIPLLGPKHVDAGVRVSVSKEFLECVDKKVTKQRPLWRVNAANVDTSHDSALILNDHSLFSQGISSGGDCISVEIKPKCGFLPTSRFIGKENMLKTSVSRFKMHQLLKLEYNEISAASAYDPLDLFSGSKESVLEAIKALYSTPQNNFRVFLNGSLILGGSGESTGRTSPEIGYAFEDALKGFIQSEDGHRTECFLQLVSDAVYGSGVLDRLLEIQKLDKLDIEGAIHSYYDLINQPCPICKEGKPLEAELSLHALPLDESLKIVKEYLIAATAKDCSIMISFQSRNAWDSEPSGDYVSLKPTNQTFDYKVHFIDLSLKPLKRMESYYKLDKKIISFYNRKQKAENTAEQIGNSKPSHS,soluble
6,MAEVVVIGAGLSGTLMAYELLPQLGKDDRLSVISQGAIYHFVPSNPWVAVGWRKRDEIEIDLVDIMKRKGVRLLTQGAKRLHPTENRVELSDGTSINYDYLVVATGPELAFDEIPGLGPQGHTQSICHVDHASHAKDAFEKLAARPGPVVIGAVQGASCFGPAYEFLFILETELRRRKLRDQVPMTFVTSEPYVGHLGLDGVGDTKGLLEGEMREKHVKWITNARVKGVEAGKMVVEELGEGGAVHKTHELPFAYSMMLPAFRGVEAVRGIDKLTNPRGFVIVDKHQRNPAFPNVFAVGVCVAIAPVGATPVSVGVPKTGFMIESMVTATALNIGALLRGKEPSAQPTWNAICLADFGDSGVAFLAQPQIPPRNVNWSSKGEWVHYAKVAFEKYFLRKMRRGESEPFYERFLLDKLNIAKIKEVRTGTLEHHHHHH,soluble
7,MGSDKIHHHHHHAAPAPQAPALPANLTTRTWVLTDLAPGGKLRRVTGERPTLTWTVQPGGLQLSGSTGCNTYRGPATVTGQQLKVSALATTRRGCAPTQAQQENDFLTLLRGASHYRLSGQTLTVYAASTARLVFTAAPGGSMTTPSNTPAGANTPTGTTLKAAQLAGDWQLTDLREGGQAVTLPADAPFTFTASGTNTLRLSGMAGCNRLMGEVTLSGAGLTFGPLAATRMACEDMTAEQALSRVLQGSGQVTLKGDTLTWHRSGGEVVLTRRAPAATTADLSGSYRLLSVNGTAADARRTVSLTFKAGQVGGFDGCNSFGGEYSLDKAGHLTAGNLVTTLRACPDQLDQPILTALLGQAPTVQLRGRTLTLDAGGERWVFERE,not soluble
8,MEAAHFFEGTEKLLEVWFSRQQPDANQGSGDLRTIPRSEWDILLKDVQCSIISVTKTDKQEAYVLSEASMFVSKRRFILKTCGTTLLLKALVPLLKLARDYSGFDSIQSFFYSRKNFMKPSHQGYPHRNFQEEIEFLNAIFPNGAAYCMGRMNSDCWYLYTLDFPESRVISQPDQTLEILMSELDPAVMDQFYMKDGVTAKDVTRESGIRDLIPGSVIDATMFNPCGYSMNGMKSDGTYWTIHITPEPEFSYVSFETNLSQTSYDDLIRKVVEVFKPGKFVTTLFVNQSSKCRTVLASPQKIEGFKRLDCQSAMFNDYNFVFTSFAKKQQQQQSHICRSQMVTSQQTSSVVRQT,soluble
9,SVFADQVGVQVIGVNDFHGALDNTGTANMPDGKVANAGTAAQLDAYMDDAQKDFKQTNPNGESIRVQAGDMVGASPANSGLLQDEPTVKNFNAMNVEYGTLGNHEFDEGLAEYNRIVTGKAPAPDSNINNITKSYPHEAAKQEIVVANVIDKVNKQIPYNWKPYAIKNIPVNNKSVNVGFIGIVTKDIPNLVLRKNYEQYEFLDEAETIVKYAKELQAKNVKAIVVLAHVPATSKNDIAEGEAAEMMKKVNQLFPENSVDIVFAGHNHQYTNGLVGKTRIVQALSQGKAYADVRGVLDTDTQDFIETPSAKVIAVAPGKKTGSADIQAIVDQANTIVKQVTEA,not soluble
10,MASQSQGIQQLLQAEKRAKDKLEEAKKRKNKRLRQAKEEATADIDQYRLKREADFRRIQTSVMGSQGNLAVKIEEQTVEKIQFYSSSYNKYKEGVLKELLDLAYNIKPELHTNYKYKI,not soluble
11,VLKLDRQTQIWNRASLESGGATPAAGDIALASLLLAHGLAMNGGVAHAIESLSQAEIAAAIDGFNYFGLTDASHVFEQRPDDSEDVEERLNMMYRTAVPNDRVLAHAFRVKLVSTPSAFAPIDHGAHV,not soluble
12,MPILQPKLMKQLMKFAIFGNTYQPKKSLHALRLFELLKKQGAEICMCREFYQFLTADLKMEVPVDALLEGNDFTADMVISIGGDGTFLKAARRVGRKQIPILGINTGRLGFLADVSPEEMEVTFEEIQAGRYSVEERSVLQLICNDRNLQESPYALNEIAVLKRDSSSMISIRTAINGAYLNTYQADGLVIATPTGSTAYSLSVGGPIIVPHSNTIAITPVAPHSLNVRPIVIRDDWEITLDVESRSHNFLVAIDGSSETCKETTQLTIRRADYSIKVVKRFNHIFFDTLRSKMMWGADGRRLEHHHHHH,soluble
13,MSLKITDVRVIRFRTHADRWDIGHARLRPAAEVSQTVTCIDTDAGLTGWFFGGGKHGDQDGMSPDEQRLIEGRVRDLLLGVDPFDREAVWKWMWVANLPEVAQSVIDCALWDLAGRAAGQPVYKLMGAARDKVPAYASTYPNIGPPQVYAEHALACRAEGYKAYKIHPHYFWNPDTGLPTKGRPSNIRADIETINLVREAVGPDMVLMYDVWGTYHTIEETIKVGRELERNDFYWFEHPMPEYRVESYRRLCRELSIPILAPEIAAGGVFTRAEWILQGASDMSRMDIRRGGVTGCRKTAVVCEAFGQRCEIHMAGWGNLQVMGATSQDTSEWYEKGLLAPGVDYDAPHPYLERNCDPMDAEGHVALPTAPGLGYEPIWDYIDDNRVPSEGHHHHHH,soluble
14,MTGTVSRRKKIAMIGSGMIGGTMGYLCVLRELADVVLFDVVTGMPEGKALDDSQATSIADTNVSVTSANQYEKIAGSDVVIITAGLTKVPGKSDKEWSRNDLLPFNAKIIREVAQGVKKYCPLAFVIVVTNPLDCMVKCFHEASGLPKNMVCGMANVLDSARFRRFIADQLEISPRDIQATVIGTHGDHMLPLARYVTVNGFPLREFIKKGKMTEAKLAEIVERTKKAGGEIVRLLGQGSAYYAPALSAITMAQAFLKDEKRVLPCSVYCQGEYGLHDMFIGLPAVIGGGGIEQVIELELTHEEQECFRKSVDDVVELNKSLAALGPG,soluble
15,MGSDKIHHHHHHMSMDIVERINKLKEEKNAVILAHNYQPKEIQKIADFLGDSLELCIKAKETDADIIVFCGVDFMGESAKILNPEKKVLMPEIEGTQCPMAHQLPPEIIKKYRELYPEAPLVVYVNTTAETKALADITCTSANADRVVNSLDADTVLFGPDNNLAYYVQKRTDKKVIAIPEGGGCYVHKKFTIDDLKRVKSKYPNAKVLIHPECSPELQDNADYIASTSGILRIVLESDDEEFIIGTEVGMINRLEIELEKLGKKKTLIPLRKDAICHEMKRITLEKIEKCLLEERYEIKLEKEIIEKAQKAIERMLRI,not soluble
16,MAKKTSSKGKLPPGPLPLPGLGNLLHVDFQNTPYCFDQLRRRFGDVFSLQLAWTPVVVLNGLAAVREALVTHGEDTADRPPVPITQILGFGPRSQGVFLARYGPAWREQRRFSVSTLRNLGLGKKSLEQWVTEEAACLCAAFANHSGRPFRPNGLLDKAVSNVIASLTCGRRFEYDDPRFLRLLDLAQEGLKEESGFLREVLNAVPVDRHIPALAGKVLRFQKAFLTQLDELLTEHRMTWDPAQPPRDLTEAFLAEMEKAKGNPESSFNDENLRIVVADLFSAGMVTTSTTLAWGLLLMILHPDVQRRVQQEIDDVIGQVRRPEMGDQAHMPYTTAVIHEVQRFGDIVPLGMTHMTSRDIEVQGFRIPKGTTLITNLSSVLKDEAVWEKPFRFHPEHFLDAQGHFVKPEAFLPFSAGRRACLGEPLARMELFLFFTSLLQHFSFSVPTGQPRPSHHGVFAFLVSPSPYELCAVPRHHHH,soluble
17,MNVCFFPRLKEFILNQDWNDPKSQLQQCCLTLRTEGKEPDIPLYKTLQTVGPSHARTYTVAVYFKGERIGCGKGPSIQQAEMGAAMDALEKYNFPQMAHQKRFIERKYRQELKEMRWEREHQEREPEEAEDIKK,soluble
18,GPGSMKLTFYRLLGCPYCAKVEAVLQYHDVPYEEVHVDPLSGKGLPDRRYQLAPQLYLAPLAKRNSGGAEAAATDSNGVYVVDSAEIVSRLSGPLKYAADIANPRISATRDWITNHFHGASFAITNNSFCDAYATYAYVTPSNYQNFLYHVVGSAALSVLSRYKIQPRLIAKMECADGPAAATPTGAPASTDSNGLWMLSEASRKALAATVRFGAVEEWLRAELQTFLQRRPADKVFHGGSSPDLADVEMYGVTRVVDQHPRLGAVVREGAFGEWQTAMREKLKANTGSVYA,not soluble
19,MTRMKYLVAAATLSLFLAGCSGSKEEVPDNPPNEIYATAQQKLQDGNWKQAITQLEALDNRYPFGPYSQQVQLDLIYAYYKNADLPLAQAAIDRFMRLNPTHPNIDYVMYMRGLTNMALDDSALQGFFGVDRSDRDPQHARAAFNDFSKLVRSYPNSQYTTDATKRLVFLKDRLAKYEYSVAEYYTARGAWVAVVNRVEGMLRNYPDTQATRDALPLMENAYRQMQLNAQADKVAKIIAANSKNT,not soluble
20,MAHHHHHHMLVRRSLSKKRSVIRGRNSRDLRVSSYIRVCTCTYVRNLCCRRLAYYDVCGESWSHARPFSPNSAMDYSLSVFRVLCPFVKTFFLFTLPCLTEGEGRVKSLIRWWEKKTCAEILMSSHAYLGLLRFICDLYTSFKGYVSRWHCPARRTAVLSCLSAAIGADGGVGPWLLLFVRAAVLRVLSLRQHPQTTQGEGRLARLVQPNQSGGHERHQQ,not soluble
